# Measured values published in patent publication US20210309981, “VARIANT TYPE V CRISPR/CAS EFFECTOR POLYPEPTIDES AND METHODS OF USE THEREOF” (The Regents of the University of California, published 2021).
# T1: dCasX (D672A-E769A-D935A) (Deltaproteobacteria, D672A,E769A,D935A)
# T1 chain: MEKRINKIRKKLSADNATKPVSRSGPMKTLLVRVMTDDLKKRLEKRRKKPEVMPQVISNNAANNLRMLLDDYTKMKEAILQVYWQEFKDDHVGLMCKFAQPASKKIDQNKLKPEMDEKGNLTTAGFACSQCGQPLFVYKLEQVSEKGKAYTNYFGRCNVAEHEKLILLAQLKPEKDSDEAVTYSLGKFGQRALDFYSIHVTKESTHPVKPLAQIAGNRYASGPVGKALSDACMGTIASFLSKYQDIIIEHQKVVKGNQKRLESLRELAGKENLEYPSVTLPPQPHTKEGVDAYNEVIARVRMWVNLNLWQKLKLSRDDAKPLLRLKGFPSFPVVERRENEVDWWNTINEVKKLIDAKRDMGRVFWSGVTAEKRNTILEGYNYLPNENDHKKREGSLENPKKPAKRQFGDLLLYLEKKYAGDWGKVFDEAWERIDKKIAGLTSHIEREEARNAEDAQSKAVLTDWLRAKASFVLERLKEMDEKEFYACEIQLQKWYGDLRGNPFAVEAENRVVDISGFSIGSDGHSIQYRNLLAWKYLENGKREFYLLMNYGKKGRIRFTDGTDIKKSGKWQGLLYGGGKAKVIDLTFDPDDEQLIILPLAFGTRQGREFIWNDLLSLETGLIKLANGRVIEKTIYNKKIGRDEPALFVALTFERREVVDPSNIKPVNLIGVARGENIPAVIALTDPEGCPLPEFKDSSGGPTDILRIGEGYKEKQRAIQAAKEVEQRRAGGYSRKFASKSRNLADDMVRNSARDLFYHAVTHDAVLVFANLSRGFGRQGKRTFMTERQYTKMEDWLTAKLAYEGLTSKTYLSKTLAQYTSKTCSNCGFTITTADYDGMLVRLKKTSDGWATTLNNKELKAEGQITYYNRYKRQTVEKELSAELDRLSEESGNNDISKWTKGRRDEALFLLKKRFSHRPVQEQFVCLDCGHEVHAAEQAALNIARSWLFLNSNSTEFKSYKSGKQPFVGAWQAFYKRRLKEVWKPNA
# B1: CasX sgRNA (in vitro transcribed; listed sequence is the DNA transcription template) (ssRNA)
# RNA: GGCGCGUUUAUUCCAUUACUUUGGAGCCAGUCCCAGCGACUAUGUCGUAUGGACGAAGCGCUUAUUUAUCGGAGAGAAACCGAUAAGUAAAACGCAUCAAAGUCCUGCAGCAGAAAAUCAAA
# Biological target: T1, dCasX (D672A-E769A-D935A)
# Assay: structure; binary CasX-gRNA complex by SEC and cryo-EM; wild-type vs triple mutant not explicitly stated
# Conditions: tags: 2CT-10 vector; tag removed by TEV
binder,measurement,value
B1,binding result,binds
